The values below come from paper PMC11661604.

The target of the assay is native Semliki Forest virus (SFV) virion (Semliki Forest virus). The experiment in a line: SPR; Biacore 8K; purified SFV virions amine-coupled on a CM5 chip (more than 2,500 RU); Fc fusions flowed in gradient concentrations at 30 μL/min in PBS with 0.05% Tween-20, pH 7.4, 25°C; 1:1 binding model.
For the substance “LA3-5-Fc (from UniProt P98155-1 110-237) (Fc fusion)”, the equilibrium dissociation constant (Kd) – broadly, the equilibrium constant for the complex coming apart – is 438 nM. “LA1-3-Fc (from UniProt P98155-1 31-152) (Fc fusion)”: the increase in KD compared to LA2-3 is 100 nM. The substance “LA3-Fc (from UniProt P98155-1 110-152) (Fc fusion)” had an equilibrium dissociation constant (Kd) of 903 nM. In turn, “LA2-5-Fc (from UniProt P98155-1 69-237) (Fc fusion)” came in with a dissociation constant (Kd) of 269 nM. On the same count and under the same terms, the result for “LA3-4-Fc (from UniProt P98155-1 110-191) (Fc fusion)” reads 1480 nM; that for “LA2-3-Fc (from UniProt P98155-1 69-152) (Fc fusion)”, 445 nM.

Turning to “VLDLRLBD-Fc (ligand-binding domain of human VLDLR, LA1-8, Fc fusion) (from UniProt P98155-1 31-355)”, the Kd is 252 nM.
